Biological target: T1, human plasma kallikrein (human, UniProt P03952 20-390; P03952 391-638)
T1 construct: two disulfide-linked chains; also called pKal; human pKal
Assay: ELISA; signal on coated biotinylated human plasma kallikrein divided by signal on streptavidin; Fab
From the text: Abbreviations used: "T/B" is the ELISA signal obtained using of the target (biotinylated plasma kallikrein) divided by the ELISA signal of the "background" (streptavidin); both of which were coated on microtiter plates. "nd" is not determined. The symbol "q" refers to the amber suppressible stop codon (TAG), which is translated as glutamine (Q) in strains of E. coli such as the TG1 cells that were used to express the Fab fragments.

T1 sequence (P03952 20-390, chain 1 of 2): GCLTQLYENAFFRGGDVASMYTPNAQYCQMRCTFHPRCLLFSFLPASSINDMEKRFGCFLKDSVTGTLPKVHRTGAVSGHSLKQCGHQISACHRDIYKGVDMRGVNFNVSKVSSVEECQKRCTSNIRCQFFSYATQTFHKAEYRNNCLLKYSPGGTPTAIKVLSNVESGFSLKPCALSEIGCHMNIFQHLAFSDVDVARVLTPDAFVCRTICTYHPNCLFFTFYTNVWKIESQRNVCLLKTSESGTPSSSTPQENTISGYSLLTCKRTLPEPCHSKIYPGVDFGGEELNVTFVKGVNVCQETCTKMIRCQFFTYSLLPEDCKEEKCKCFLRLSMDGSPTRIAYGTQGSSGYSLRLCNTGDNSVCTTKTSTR
T1 sequence (P03952 391-638, chain 2 of 2): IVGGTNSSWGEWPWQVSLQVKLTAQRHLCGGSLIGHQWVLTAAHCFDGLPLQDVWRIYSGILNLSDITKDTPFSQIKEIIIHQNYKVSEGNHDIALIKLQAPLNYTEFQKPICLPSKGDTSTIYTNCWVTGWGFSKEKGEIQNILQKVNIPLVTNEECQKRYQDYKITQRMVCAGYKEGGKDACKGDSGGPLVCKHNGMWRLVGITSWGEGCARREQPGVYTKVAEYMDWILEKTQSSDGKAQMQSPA

Binder | Human pKal ELISA (T/B)
M27-G04 (Fab, V domains shown, Fab fragment (E. coli TG1); printed HC runs into the start of CH1) VH: EVQLLESGGGLVQPGGSLRLSCAASGFTFSAYYMVWVRQAPGKGLEWVSYISPSGGQTQYADSVKGRFTISRDNSKNTLYLQMNSLRAEDTAVYYCAREAISSSSFDYWGQGTLVTVSS VL: DIQMTQSPSSLSASVGDRVTITCRASQRISYYLTWYQQKPGKVPKLLIYAASSLESGVPSRFSGSGSGTDFTLTISNLQPEDFATYYCQQAFSTPFTFGGGTKVEIK | 4.1 T/B (target signal / background signal)
M28-C03 (Fab, V domains shown, Fab fragment (E. coli TG1); printed HC runs into the start of CH1) VH: EVQLLESGGGLVQPGGSLRLSCAASGFTFSYYQMGWVRQAPGKGLEWVSSIYPSGGMTDYADSVKGRFTISRDNSKNTLYLQMNSLRAEDTAVYYCTRGSPWGDDAFDIWGQGTMVTVSS VL: DIQMTQSPSSLSASVGDRVTITCRASQSINFYLNWYQQKPGKAPKLLIYVASSLESGVPSRFSGSASGTEFTLTISSLQPEDFATYYCLQSYSAPYTFGQGTKVEIT | 2.2 T/B (target signal / background signal)
M29-D10 (Fab, V domains shown, Fab fragment (E. coli TG1); printed HC runs into the start of CH1) VH: EVQLLESGGGLVQPGGSLRLSCAASGFTFSWYPMYWVRQAPGKGLEWVSSIGSSGGPTPYADSVKGRFTISRDNSKNTLYLQMNSLRAEDTAVYYCARWADYGGSLDYWGQGTLVTVSS VL: DIQMTQSPSSLSASVGDTVSITCRASQSITIYLNWYQHKPGKAPNLLIYGASNLHSGVPSRFSGSGSGTDFTLTISSLQPEDFATYYCQQSYDTPLTFGGGTKVEIK | 23.6 T/B (target signal / background signal)
M27-H10 (Fab, V domains shown, Fab fragment (E. coli TG1); printed HC runs into the start of CH1) VH: EVQLLESGGGLVQPGGSLRLSCAASGFTFSAYQMAWVRQAPGKGLEWVSVIYSSGGYTDYADSVKGRFTISRDNSKNTLYLQMNSLRAEDTAVYYCARHNWNDGAFDIWGQGTMVTVSS VL: DIQMTQSPSSLSASVGDRVTITCRASQSISNYLNWYQQKPGKAPKFLIYAASSLQSGVPSRFSGSGSGTDFTLSISSLQPEDFATYYCQQSYSTPQTFGQGTKVEMK | 12.4 T/B (target signal / background signal)
M28-E01 (Fab, V domains shown, Fab fragment (E. coli TG1); printed HC runs into the start of CH1) VH: EVQLLESGGGLVQPGGSLRLSCAASGFTFSSYPMGWVRQAPGKGLEWVSRISSSGGMTIYADSVKGRFTISRDNSKNTLYLQMNSLRAEDTAVYYCARDDWNVGMDVWGQGTTVTVSS VL: DIQMTQSPSSLSASVGDRVTITCRASQSISSYLNWYQQKPGKAPKLLIYAASSLQSGVPSKFSGSGSGTDYTLTISSLQPEDFATYYCQQTYTTPWTFGQGTKVEIK | 41 T/B (target signal / background signal)
M28-D02 (Fab, V domains shown, Fab fragment (E. coli TG1); printed HC runs into the start of CH1; The LC is printed with an amber codon 'q' (QDIqMTQ), written here as Q) VH: EVQLLESGGGLVQPGGSLRLSCAASGFTFSWYPMQWVRQAPGKGLEWVSYIYPSGGGTDYADSVKGRFTISRDNSKNTLYLQMNSLRAEDTATYYCATSSGWLGDAFDIWGQGTMVTVSS VL: DIQMTQSPSSLSASEGDMVTITCRTSRRIGTYLNWYQQKPGKAPKLLIYGASSLQSGVPSRFSGSGSGTDFTLTVSSLQPEDVGTYYCQQSFSSPWTFGPGTKVEIK | 3.7 T/B (target signal / background signal)
M12-C09 (Fab, V domains shown, Fab fragment (E. coli TG1); printed HC runs into the start of CH1; tied to M12-C09 by its CDRs; also called M12-009) VH: EVQLLESGGGLVQPGGSLRLSCAASGFTFSSYAMVWVRQAPGKGLEWVSSIGSSGGFTLYADSVKGRFTISRDNSKNTLYLQMNSLRAEDTAVYYCASMNLGGGDAFDIWGQGTMVTVSS VL: DIQMTQSPSSLSASVGDRVTITCRASQSIGIYLNWYHQKPGKAPNLLIYGASSLQSGVPSRFSGSGSGTDFTLTISSLQPGDFATYYCQHSYSTPFTFGGGTKVEIK | 7 T/B (target signal / background signal)
M27-G01 (Fab, V domains shown, Fab fragment (E. coli TG1); printed HC runs into the start of CH1) VH: EVQLLESGGGLVQPGGSLRLSCAASGFTFSLYRMFWVRQAPGKGLEWVSSIWSSGGPTMYADSVKGRFTISRDNSKNTLYLQMNSLRAEDTAVYYCAREYPSTYYFDYWGQGTLVTVSS VL: DIQMTQSPSSLSASVGDRVTITCRASQSISTYLNWYQQKPGKAPKLLIYGASSLQSGVPSRFSGSGSGTDFTLTISSLQPEDFTIYYCQQSYSDPYTFGQGTKLDIK | 31.4 T/B (target signal / background signal)
M27-F11 (Fab, V domains shown, Fab fragment (E. coli TG1); printed HC runs into the start of CH1) VH: EVQLLESGGGLVQPGGSLRLSCAASGFTFSSYHMMWVRQAPGKGLEWVSSIYPSGGATMYADSVKGRFTISRDNSKNTLYLQMNSLRAEDTAMYYCARDGYHYGDYTYFQHWGQGTLVTVSS VL: DIQMTQSPSFLSASVGDRVTITCRASQGISSYLAWYQQKPGKAPKLLIYAASSLQSGVPSRFSGSGSGTDFTLTISSLQPEDFATYYCQQSYNTLRTFGPGTKVDLK | 10 T/B (target signal / background signal)
M27-F04 (Fab, V domains shown, Fab fragment (E. coli TG1); printed HC runs into the start of CH1) VH: EVQLLESGGGLVQPGGSLRLSCAASGFTFSWYPMTWVRQAPGKGLEWVSSIGPSGGQTIYADSVKGRFTISRDNSKNTLYLQMNSLRAEDTAVYYCTTEYGDYGGGFDPWGQGTLVTVSS VL: not shown | 10.5 T/B (target signal / background signal)
M27-B12 (Fab, V domains shown, Fab fragment (E. coli TG1); printed HC runs into the start of CH1) VH: EVQLLESGGGLVQPGGSLRLSCAASGFTFSWYQMMWVRQAPGKGLEWVSSISPSGGITEYADSVKGRFTISRDNSKNTLYLQMNSLRAEDTAVYYCARDRSSGWYYYGMDVWGQGTTVTVSS VL: QYELTQPPAVSVSPGQTATITCSGDKLGDEYAAWYQQKPGQSPVLVIYQDRKRPSGIPERFSGSNFGNTATLTITGTQVMDEADYYCQAWGKRNVVFGGGTKLTVL | 2.3 T/B (target signal / background signal)
M27-E03 (Fab, V domains shown, Fab fragment (E. coli TG1); printed HC runs into the start of CH1) VH: EVQLLESGGGLVQPGGSLRLSCAASGFTFSSYMMHWVRQAPGKGLEWVSGIYPSGGWTDYADSVKGRFTISRDNSKNTLYLQMNSLRAEDTATYYCARLVAGLDAFDIWGQGTMVTVSS VL: not shown | 35.9 T/B (target signal / background signal)
M28-F07 (Fab, V domains shown, Fab fragment (E. coli TG1); printed HC runs into the start of CH1) VH: EVQLLESGGGLVQPGGSLRLSCAASGFTFSDYTMYWVRQAPGKGLEWVSSIVPSGGHTLYADSVKGRFTISRDNSKNTLYLQMNSLRAEDTAVYYCAKDHLSSWYGGFFDYWGQGTLVTVSS VL: DIQMTQSPSSVSASVGDRVTITCRASQGISSWLAWYQQKPGKAPKLLIYATSGLQSGVPSRFSGSGSGTDFTLTISSLQPEDFATYYCQQAKSFPLTFGGGTRVEIK | 33 T/B (target signal / background signal)
M28-E11 (Fab, V domains shown, Fab fragment (E. coli TG1); printed HC runs into the start of CH1) VH: EVQLLESGGGLVQPGGSLRLSCAASGFTFSLYDMTWVRQAPGKGLEWVSGISSSGGVTIYADSVKGRFTISRDNSKNTLYLQMNSLRAEDTAVYYCARTYYYDSSGYADAFDIWGQGTMVTVSS VL: DIQMTQSPSSVSASVGDRVTINCRASQDISNWLAWYQQKPGKAPNLLIYAASSLQTGAPSRFSGSGSGTDFTLTISSLQPEDFGTYVCQQSYSLPWTFGLGTKVEVR | 29.3 T/B (target signal / background signal)
M12-D10 (Fab, V domains shown, Fab fragment (E. coli TG1); printed HC runs into the start of CH1) VH: EVQLLESGGGLVQPGGSLRLSCAASGFTFSNYPMDWVRQAPGKGLEWVSSISSSGGWTNYADSVKGRFTISRDNSKNTLYLQMNSLRAEDTAVYYCATDTSGSYLGFDYWGQGTLVTVSS VL: not shown | 9.9 T/B (target signal / background signal)
M29-C07 (Fab, V domains shown, Fab fragment (E. coli TG1); printed HC runs into the start of CH1) VH: EVQLLESGGGLVQPGGSLRLSCAASGFTFSGYDMMWVRQAPGKGLEWVSVISSSGGNTAYADSVKGRFTISRDNSKNTLYLQMNSLRAEDTAVYYCARESSGLYYFDYWGQGTLVTVSS VL: not shown | 5.2 T/B (target signal / background signal)

Results, then the binder that gave them:

Human pKal ELISA (T/B) | Binder
48 T/B (target signal / background signal) | M12-E06 (Fab, V domains shown, Fab fragment (E. coli TG1); printed HC runs into the start of CH1) VH: EVQLLESGGGLVQPGGSLRLSCAASGFTFSQYKMLWVRQAPGKGLEWVSGIGPSGGLTAYADSVKGRFTISRDNSKNTLYLQMNSLRAEDTAVYYCARAPWFGELGMDVWGQGTTVTVSS VL: DIQMTQSPSSLSASVGDRVSITCRASQSISTYLNWYQHKPGKAPTLLIYGAFSLQSGVPSRFSGSGSGTDFALTISSLQPEDFATYYCQQSHSTPPTFGQGTRVEIK
19 T/B (target signal / background signal) | M28-A01 (Fab, V domains shown, Fab fragment (E. coli TG1); printed HC runs into the start of CH1) VH: EVQLLESGGGLVQPGGSLRLSCAASGFTFSWYAMHWVRQAPGKGLEWVSGIYSSGGYTKYADSVKGRFTISRDNSKNTLYLQMNSLRAEDTAVYYCARDLSNGDDVFDIWGQGTMVTVSS VL: not shown
8.3 T/B (target signal / background signal) | M12-C10 (Fab, V domains shown, Fab fragment (E. coli TG1); printed HC runs into the start of CH1 and printed LC into the start of the lambda constant region (GQPK)) VH: EVQLLESGGGLVQPGGSLRLSCAASGFTFSDYEMHWVRQAPGKGLEWVSGISPSGGKTQYADSVKGRFTISRDNSKNTLYLQMNSLRAEDTAVYYCARDLKWGGRGSPDWYFDLWGRGTLVTVSS VL: QSALTQPPSVSVSPGQTASITCSGDKLGEKYVSWYQQKPGQSPVVVIYQDNKRPSGIPERFSGSNSGNTATLTISGTQAVDEADYYCQAWDSYTVVFGGGSKLTVLG
41.6 T/B (target signal / background signal) | M28-D12 (Fab, V domains shown, Fab fragment (E. coli TG1); printed HC runs into the start of CH1) VH: EVQLLESGGGLVQPGGSLRLSCAASGFTFSWYTMHWVRQAPGKGLEWVSVIYPSGGPTSYADSVKGRFTISRDNSKNTLYLQMNSLRAEDTATYYCARDGSGSYLGFDYWGQGTLVTVSS VL: DIQMTQSPSSLSASVGDRVTITCRASQSIATYLNWYQQKPGRAPKLLIYAASSLQSGVPSRFVGGGSGSGTHFTLTISSLQPEDFATYYCQQSYSTRETFGQGTKVEIK
3.2 T/B (target signal / background signal) | M27-A10 (Fab, V domains shown, Fab fragment (E. coli TG1); printed HC runs into the start of CH1) VH: EVQLLESGGGLVQPGGSLRLSCAASGFTFSWYRMDWVRQAPGKGLEWVSSIWPSGGLTSYADSVKGRFTISRDNSKNTLYLQMNSLRAEDTAVYYCARGWAPGGDAFDIWGQGTMVTVSS VL: DIQMTQSPSSLSASVGDRVTITCRASQSISAYLNWYQQKPGKAPQLLMYGVGSLQSGVPSRFSGSGSGTDFTLTISSLQPEDFATYFCQQGYTTPVTFGGGTKVEIK
33.1 T/B (target signal / background signal) | M27-B01 (Fab, V domains shown, Fab fragment (E. coli TG1); printed HC runs into the start of CH1) VH: EVQLLESGGGLVQPGGSLRLSCAASGFTFSDYTMWWVRQAPGKGLEWVSSISSSGGITFYADSVKGRFTISRDNSKNTLYLQMNSLRAEDTAVYYCARSADTAMGGAFDIWGQGTMVTVSS VL: not shown
2.2 T/B (target signal / background signal) | M27-G09 (Fab, V domains shown, Fab fragment (E. coli TG1); printed HC runs into the start of CH1) VH: EVQLLESGGGLVQPGGSLRLSCAASGFTFSEYDMAWVRQAPGKGLEWVSYIVSSGGFTSYADSVKGRFTISRDNSKNTLYLQMNSLRAEDTAVYYCTTWAGWIAAADYWGQGTLVTVSS VL: DIQMTQSPSSVSASVGDRITITCRTRQSISNYLNWYQQKPGEPPKLLIFAASSLQSGVPSRFSGSGTGTEFTLTISSLQPEDLAIYYCQQSYDIPFTFGQGTKLEIK
